The source of these data is article PMC10164722, “Crystal Structure of Mesaconyl-CoA Hydratase from Methylorubrum extorquens CM4” (Journal of Microbiology and Biotechnology, 2023).

This series deals with the molecule itself. Put plainly: crystal structure; MeMeaC with malic acid, 1.95 Å, space group P6_(3), one molecule in the asymmetric unit; trimer by crystallographic symmetry (PDBePISA also suggested a trimer).

B1: mesaconyl-CoA hydratase from Methylorubrum extorquens CM4 (enzyme, UniProt C5B1K4 1-348, looked up)
chain: MKTNPGRFFEDFRLGETIRHATPRTVTTGDVALYTALYGPRFAVQSSDAFAKAIGHPASPLDDLLTFHVVFGKTVPDVSLNALANLGYAEGGFHRPVYPGETLSTVSEVIGLKESSNRQTGVVYVRSTGSDASGQTVLSYCRWVLVRKRDPEAKIAEEHVPQLAKVVNPADLAHALPPLDPAAYDNALAGSPHRFADYAVGEKIDHVDGMTVEEAEHQIATRLFQNTAKVHFDAVATKETKFGKRLIYGGHVISLARALSFNGLANAFAIGGINAGRHVAPLFAGDTVYAWSEVLETAELPGRSDIGALRLRTVATKNQSCGAYPDKQGEGYDPSVILDLDYWAFIPR
notes: Mesaconyl-CoA hydratase MeaC (locus Mchl_4075) of Methylorubrum extorquens CM4; subdomains printed as residues 1~147 (MeaC^N), 148~190 (MeaC^Br) and 191~348 (MeaC^C); Surmised: cloning into pET30a by NdeI/XhoI with a reverse primer that has no stop codon would put the vector's His6 tag (after Leu-Glu) at the C-terminus; also called MeMeaC; MeaC; source: E. coli BL21(DE3)-T1R, purified (Ni-NTA, …)
Regarding B1, the “stoichiometry N” value is 3.
